According to the supplement of paper PMC10724198:
± gives the standard deviation of the averaged measurements.

Columns and labels:
[1] = system: Saccharomyces cerevisiae; experiment: protein stability index of tFT-peptide fusion (C-terminal peptide) (PSI (0-1 scale)); higher = more stable (slower turnover)
Experimental: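 MPS profiling in S. cerevisiae of the tFT-X12 degron library: putative degron peptides plus stable controls, 12 aa, fused to the C-terminus of a sfGFP-mCherry timer. Cells are FACS-sorted into 8 mCherry/sfGFP bins and deep-sequenced. PSI runs from 0 (unstable) to 1 (stable). Backgrounds are wild type, das1Δ and doa10Δ at 30 °C, and wild type, das1Δ, cdc34-1 and cdc53-1 at 37 °C; 2-3 technical replicates each.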

[2] = system: Saccharomyces cerevisiae; experiment: as above; conditions: genetic background: wild type; temperature: 30 C
[3] = genetic background: cdc34-1, temperature: 37 C
[4] = genetic background: cdc53-1, temperature: 37 C
[5] = genetic background: das1 deletion, temperature: 30 C
[6] = genetic background: das1 deletion, temperature: 37 C
[7] = genetic background: doa10 deletion, temperature: 30 C
[8] = genetic background: wild type, temperature: 30 C
[9] = genetic background: wild type, temperature: 37 C
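Further: PSI is a weighted mean of sequencing reads over stability bins, variants kept only with over 10 reads, mCherry proximal and sfGFP distal, peptide attached via GGGS linker.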

| Sequence | protein stability index [1, 3] | protein stability index [1, 4] | protein stability index [1, 5] | protein stability index [1, 6] | protein stability index [1, 7] | protein stability index [1, 8] | protein stability index [1, 9] | protein stability index [2] |
| --- | --- | --- | --- | --- | --- | --- | --- | --- |
| LWGLVGVCLVLC | 0.0679 ± 0.011 | 0.0705 ± 0.004 | 0.176 ± 0.021 | 0.229 ± 0.0061 | 0.135 ± 0.0079 | 0.113 ± 0.016 | 0.134 ± 0.011 | 0.169 ± 0.0084 |
| ATAVMILCFRWC | 0.392 ± 0.0051 | 0.492 ± 0.018 | 0.329 ± 0.041 | 0.526 ± 0.013 | 0.2872 ± 0.0016 | 0.308 ± 0.015 | 0.4711 ± 0.00051 | 0.419 ± 0.053 |
| LPPPTPRSVLLN | 0.644 ± 0.039 | 0.737 ± 0.034 | 0.672 ± 0.019 | 0.732 ± 0.015 | 0.296 ± 0.019 | 0.315 ± 0.04 | 0.5546 ± 0.0016 | 0.51 ± 0.076 |
| LLYPSKFCITAI | 0.506 ± 0.024 | 0.559 ± 0.03 | 0.413 ± 0.032 | 0.575 ± 0.016 | 0.248 ± 0.007 | 0.272 ± 0.027 | 0.431 ± 0.0044 | 0.374 ± 0.016 |
| ACEFRFFYVFRC | 0.304 ± 0.0093 | 0.245 ± 0.016 | 0.31 ± 0.056 | 0.425 ± 0.015 | 0.278 ± 0.0034 | 0.176 ± 0.016 | 0.287 ± 0.034 | 0.315 ± 0.008 |
| VYFPRLLVRVSW | 0.4489 ± 0.0015 | 0.472 ± 0.017 | 0.392 ± 0.029 | 0.508 ± 0.0082 | 0.436 ± 0.0082 | 0.377 ± 0.043 | 0.4787 ± 0.00097 | 0.407 ± 0.095 |
| SVVYVIYCGGIL | 0.446 ± 0.0082 | 0.481 ± 0.075 | 0.31 ± 0.036 | 0.555 ± 0.019 | 0.29 ± 0.0048 | 0.336 ± 0.013 | 0.503 ± 0.036 | 0.427 ± 0.036 |
| LVWSGLIVVVGG | 0.179 ± 0.024 | 0.204 ± 0.064 | 0.2 ± 0.03 | 0.318 ± 0.013 | 0.176 ± 0.033 | 0.195 ± 0.033 | 0.269 ± 0.012 | 0.3 ± 0.042 |
| SREQANTVYRLI | 0.689 ± 0.011 | 0.7132 ± 0.0048 | 0.631 ± 0.018 | 0.7187 ± 0.0036 | 0.254 ± 0.0066 | 0.3 ± 0.0074 | 0.553 ± 0.0053 | 0.376 ± 0.008 |
| FFVFMAKLRTCN | 0.455 ± 0.042 | 0.536 ± 0.034 | 0.444 ± 0.025 | 0.594 ± 0.0073 | 0.112 ± 0.019 | 0.127 ± 0.025 | 0.198 ± 0.029 | 0.0754 ± 0.063 |
